The results in this text go back to paper PMC8765430, “MdaB and NfrA, Two Novel Reductases Important in the Survival and Persistence of the Major Enteropathogen Campylobacter jejuni” (Journal of Bacteriology, 2022).

The target in one series is T1, NfrA (NfrAhis6) (Campylobacter jejuni, UniProt Q0P871).
T1 construct: gene Cj1555c; recombinant His6-tagged (pET21a+), E. coli BL21(DE3), Ni-NTA
In words: NADPH oxidation at […] nm. The class given is biochemical. The following applies: riboflavin as acceptor; pH ~7.5.

The target of a further series is T2, MdaB (MdaBhis6) (Campylobacter jejuni, UniProt Q0P880).
T2 construct: gene Cj1545c; recombinant His6-tagged (pET21a+), E. coli BL21(DE3), Ni-NTA
T2 sequence (Q0P880 entry or part of it): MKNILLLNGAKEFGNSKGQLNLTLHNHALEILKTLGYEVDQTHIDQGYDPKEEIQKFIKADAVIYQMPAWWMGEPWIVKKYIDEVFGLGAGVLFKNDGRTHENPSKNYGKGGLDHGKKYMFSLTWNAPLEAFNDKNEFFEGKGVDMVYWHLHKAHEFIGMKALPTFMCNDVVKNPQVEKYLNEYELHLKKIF
In words: NADPH oxidation at […] nm. Format: biochemical. The following applies: 0.2 mM quinone substrates; 200 μM NADPH; 50 mM Tris-HCl, 100 mM NaCl, 10% DMSO; pH ~7.5; 37°C; anaerobic.

In series [1] the target is T3, RrpB (Campylobacter jejuni, UniProt Q0P870 1-110).
T3 sequence: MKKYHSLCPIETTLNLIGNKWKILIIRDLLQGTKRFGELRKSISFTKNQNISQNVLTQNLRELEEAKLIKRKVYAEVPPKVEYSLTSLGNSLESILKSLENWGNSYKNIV
Nature of the series: EMSA; DTT (higher complex); EMSA: Odyssey infrared EMSA kit, 50 nM probe, 20 ul, 6% gel at 4 C. Footprinting: 10 mM Tris-HCl pH 8.5, 30 mM K-glutamate, 1 mM DTT, 5 mM Mg acetate, 2 mM CaCl2, 0.125 mg/ml BSA, 30% glycerol, 25 C. The following applies: protein: recombinant; tags: C-terminal His6 (pET21a); chain copies: 2; label: 5' IRDye 800.

For series [2], the target named is T3, RrpB. Nature of the series: EMSA; EMSA: Odyssey infrared EMSA kit, 50 nM probe, 20 ul, 6% gel at 4 C. Footprinting: 10 mM Tris-HCl pH 8.5, 30 mM K-glutamate, 1 mM DTT, 5 mM Mg acetate, 2 mM CaCl2, 0.125 mg/ml BSA, 30% glycerol, 25 C. The following applies: protein: recombinant; tags: C-terminal His6 (pET21a); chain copies: 2. (In general: A gel shift assay detects complexes by their altered migration in electrophoresis.)

Series [3] addresses T4, RrpA (Campylobacter jejuni, UniProt Q0P879 1-115).
T4 sequence: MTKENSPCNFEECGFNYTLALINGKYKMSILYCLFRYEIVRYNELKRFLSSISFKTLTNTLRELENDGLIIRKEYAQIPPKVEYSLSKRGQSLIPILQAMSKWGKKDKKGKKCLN
Nature of the series: EMSA; 0.05 ug protein, 50 nM DNA; EMSA: Odyssey infrared EMSA kit, 50 nM probe, 20 ul, 6% gel at 4 C. Footprinting: 10 mM Tris-HCl pH 8.5, 30 mM K-glutamate, 1 mM DTT, 5 mM Mg acetate, 2 mM CaCl2, 0.125 mg/ml BSA, 30% glycerol, 25 C. To be noted: protein: recombinant; tags: C-terminal His6 (pET21a); chain copies: 2; label: 5' IRDye 800.

Series [4] has as its target T4, RrpA. In words: EMSA; EMSA: Odyssey infrared EMSA kit, 50 nM probe, 20 ul, 6% gel at 4 C. Footprinting: 10 mM Tris-HCl pH 8.5, 30 mM K-glutamate, 1 mM DTT, 5 mM Mg acetate, 2 mM CaCl2, 0.125 mg/ml BSA, 30% glycerol, 25 C. The following applies: protein: recombinant; tags: C-terminal His6 (pET21a); chain copies: 2.

T1 sequence (Q0P871 entry or part of it): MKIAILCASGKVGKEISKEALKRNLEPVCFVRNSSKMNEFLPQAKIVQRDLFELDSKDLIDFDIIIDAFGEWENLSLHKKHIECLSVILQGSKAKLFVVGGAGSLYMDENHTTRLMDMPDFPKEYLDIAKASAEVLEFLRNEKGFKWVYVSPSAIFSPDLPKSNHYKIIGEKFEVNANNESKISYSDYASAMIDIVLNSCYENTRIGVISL

Take `NC(=O)C1=CN([C@@H]2O[C@H](COP(=O)(O)OP(=O)(O)OC[C@H]3O[C@@H](n4cnc5c(N)ncnc54)[C@H](OP(=O)(O)O)[C@@H]3O)[C@@H](O)[C@H]2O)C=CC1` [NADPH]: the specific activity entry at NfrA (NfrAhis6) is given as “This was indicative of NfrA’s preference for NADPH over NADH”; at MdaB (MdaBhis6) it was “reductase activity of MdaB was determined by monitoring the oxidation of NADPH”.

B1: nfrAprobe (dsDNA)
DNA 1: TAGATCTTTAATATTTATATAAATGATGATTTTTAGTTCATCTATAATAAAATATTATATCA
DNA 2: TGATATAATATTTTATTATAGATGAACTAAAAATCATCATTTATATAAATATTAAAGATCTA
As to B1, the binding result with RrpB [1] is “binds”.

B2: rrpB (-2) (dsDNA)
DNA 1: TTAAAAAATATGCGGATCTTTTAAAAAATAAGGATCGGATCTGAAAAAATAT
DNA 2: ATATTTTTTCAGATCCGATCCTTATTTTTTAAAAGATCCGCATATTTTTTAA
For B2, the binding result with RrpB [2] is “no binding”.

B3: mdaBprobe (dsDNA)
DNA 1: AAATTTAAAATACTATGTTAATATTGAATCGTATTATAGTAAAAGTT
DNA 2: AACTTTTACTATAATACGATTCAATATTAACATAGTATTTTAAATTT
On to B3, for which the binding result in the series with RrpA [3] is “binds”.

B4: rrpBprobe (rrpB WT) (dsDNA)
DNA 1: TTAAAAAATATGTTATAATTTTAAAAAATAAGGATTTATAATGAAAAAATAT
DNA 2: ATATTTTTTCATTATAAATCCTTATTTTTTAAAATTATAACATATTTTTTAA
Turning to B4, the binding result with RrpB [1] is given as “binds”.

B5: rrpB (-1) (dsDNA)
DNA 1: TTAAAAAATATGTTATAATTTTAAAAAATAAGGATCGGATCTGAAAAAATAT
DNA 2: ATATTTTTTCAGATCCGATCCTTATTTTTTAAAATTATAACATATTTTTTAA
As to B5, in the series with RrpB [2], the binding result is “binds”.

B6: rrpAprobe (dsDNA)
DNA 1: GCATAATATCATTTTCAATACAGAAAATAAAGTAATATACTATACTAAAGGAATGTTAAATGA
DNA 2: TCATTTAACATTCCTTTAGTATAGTATATTACTTTATTTTCTGTATTGAAAATGATATTATGC
With B6, in the series with RrpA [3], the binding result is “binds”.

B7: rrpA (-1) (dsDNA)
DNA 1: GCATAATATCATTTTCAATACAGAAAATAAAGTAATATCGAGCACTAAAGGAATGTTAAATGA
DNA 2: TCATTTAACATTCCTTTAGTGCTCGATATTACTTTATTTTCTGTATTGAAAATGATATTATGC
Consider B7, for which, in the series with RrpA [4], the binding result is “binds”.

B8: rrpA (-2) (dsDNA)
DNA 1: GCATAATCGAGCTTTCAATACAGAAAATAAAGTAATATCGAGCACTAAAGGAATGTTAAATGA
DNA 2: TCATTTAACATTCCTTTAGTGCTCGATATTACTTTATTTTCTGTATTGAAAGCTCGATTATGC
In the case of B8, the binding result with RrpA [4] is given as “no binding”.

B9: rrpA WT (Fig. S1) (dsDNA)
DNA 1: GCATATAATATCATTTTCAATACAGAAAATAAAGTAATATACTATACTAAAGGAATGTTAAATGA
DNA 2: TCATTTAACATTCCTTTAGTATAGTATATTACTTTATTTTCTGTATTGAAAATGATATTATATGC
For B9, the binding result in the series with RrpA [4] is “binds”.
